Laboratory results published in patent US20210115424A1 (University of California, published 2021).
Numbering of substitutions follows the chain as printed. Numbers in names are those of the source.

Key:
[1] = target: sorting signal peptide (quantitative HPLC assay of Table 2)
[2] = target: ^NSpaA, N-terminal domain of SpaA (residues 30-194) containing the pilin motif with K190
[3] = target: T1, SpaA derived sorting signal peptide KNAGFELPLTGGSGRI
T1 chain: KNAGFELPLTGGSGRI

[4] = target: T2, pilin motif peptide DGWLQDVHVYPKHQALS
T2 chain: DGWLQDVHVYPKHQALS

[5] = target: ^CSpaA, C-terminal domain of SpaA (residues 350-500) containing the LPLTG sorting signal
[6] = target: T3, LPATG peptide KNAGFELPATGGSGRI
T3 chain: KNAGFELPATGGSGRI

[7] = target: the molecule itself; experiment: X-ray crystallography (homodimer in the crystal)
[8] = target: SpaA, soluble form (residues 30-500) lacking the N-terminal signal peptide and C-terminal membrane anchor domain

B1: CdSrtA^Δ (CdSrtA active truncated variant with nine lid residues … deleted) (protein)
chain: NNARQARVAQSYENSYEVDSPAVRDSVLEAARQYNTSVVGFPSKNSGPYLDYLQQLNPQRAERPVIASISIPTIDAHLPIYHGTDTATLEHGLGHLYGSALPVGGTGTHPVITGHSGLANATLFDNLEDVKEHDPIYITVQGETLKYEVDAINVVLPEDTKLLAPDPNKDQITLITCTPYAVNSHRLLVRAHRVDLDPNDPNLTQTGTKIWQ
Km (M) × 10^-4 [1]: 0.00016 M
Vmax (s^-1) × 10^-9 [1]: 1e-08 s⁻¹
kcat (s^-1) × 10^-5 [1]: 0.0004 s⁻¹
kcat/kM [1]: 2.5 M⁻¹ s⁻¹

B2: SrtA^2M N228A variant (protein)
chain: NNARQARVAQSYENSYEVDSPAVRDSVLEAARQYNTSVVGFPILGPGLNRASKNSGPYLDYLQQLNPQRAERPVIASISIPTIDAHLPIYHGTDTATLEHGLGHLYGSALPVGGTGTHPVITGHSGLANATLFDNLEDVKEHDPIYITVQGETLKYEVDAINVVLPEDTKLLAPDPNKDQITLITCTPYAVASHRLLVRAHRVDLDPNDPNLTQTGTKIWQ
transpeptidation in vitro (ligation of ^NSpaA and ^CSpaA, SDS-PAGE) [2]: defective in transpeptidation in vitro, as no isopeptide linked SpaA-SpaA product was produced even after 48 hours
hydrolysis of SpaApep (HPLC-based assay, SrtA^2M set as 100%) [3]: none of the mutants exhibited any significant defect in cleaving the LPXTG (SEQ ID NO. 5) motif

B3: SrtA^2M N165A variant (protein)
chain: B2 chain with N129A, A192N
transpeptidation in vitro (ligation of ^NSpaA and ^CSpaA, SDS-PAGE) [2]: this mutant retained near wild-type activity
hydrolysis of SpaApep (HPLC-based assay, SrtA^2M set as 100%) [3]: none of the mutants exhibited any significant defect in cleaving the LPXTG (SEQ ID NO. 5) motif

B4: SrtA^2M (residues 37-257 of CdSrtA with D81G/W83G lid mutations) (protein)
chain: B2 chain with A192N
Vmax of hydrolysis kinetics (HPLC-based assay, SpaApep cleavage) [3]: 6.3 µM/h

B5: SrtA^2M Y225A variant (protein)
chain: B2 chain with Y189A, A192N
transpeptidation in vitro (ligation of ^NSpaA and ^CSpaA, SDS-PAGE) [2]: had impaired transpeptidation activity as well, but to a lesser extent than the S229A and N228A mutants
hydrolysis of SpaApep (HPLC-based assay, SrtA^2M set as 100%) [3]: none of the mutants exhibited any significant defect in cleaving the LPXTG (SEQ ID NO. 5) motif

B6: SrtA^2M S229A variant (protein)
chain: B2 chain with A192N, S193A
transpeptidation in vitro (ligation of ^NSpaA and ^CSpaA, SDS-PAGE) [2]: defective in transpeptidation in vitro, as no isopeptide linked SpaA-SpaA product was produced even after 48 hours
hydrolysis of SpaApep (HPLC-based assay, SrtA^2M set as 100%) [3]: none of the mutants exhibited any significant defect in cleaving the LPXTG (SEQ ID NO. 5) motif

B7: CdSrtA^3M (CdSrtA D81G/W83G/N85A triple mutant) (protein)
chain: B2 chain with N49A, A192N
labeling of ^NSpaA with the sorting signal peptide (MALDI-MS) [2]: >95% of ^NSpaA is labeled with the peptide
ligation of the pilin motif peptide to ^CSpaA or to the sorting signal peptide (MALDI-MS) [4]: In both instances, no detectable product was observed
HPLC-based sorting signal cleavage assay [3]: the CdSrtA^3M triple mutant exhibits the highest level of activity in a HPLC-based sorting signal cleavage assay
cross-linked ^NSpaAx^CSpaA product after 24 hour incubation, relative to CdSrtA^2M (gel densitometry) [5]: 35% more product than CdSrtA^2M
cross-linked ^NSpaAx^CSpaA product after 24 hour incubation, relative to CdSrtA^WT (gel densitometry) [5]: 10.6-fold more cross-linked ^NSpaAx^CSpaA product than CdSrtA^WT
hydrolysis of LPATG peptide (HPLC) [6]: CdSrtA^3M is unable to process any significant amount of peptide
Km (M) × 10^-4 [1]: 8e-05 M
Vmax (s^-1) × 10^-9 [1]: 1.4e-09 s⁻¹
kcat (s^-1) × 10^-5 [1]: 5.7e-05 s⁻¹
kcat/kM [1]: 0.7 M⁻¹ s⁻¹

B8: Corynebacterium diphtheriae pilus-specific sortase SrtA, soluble catalytic domain fragment (residues 37-257), SrtA^WT (enzyme)
chain: B2 chain with G45D, G47W, A192N
notes: The His6-SUMO or His/TEV tag was removed after purification; also called CdSrtA^WT; Cd-SrtA
Vmax of hydrolysis kinetics (HPLC-based assay, SpaApep cleavage) [3]: 5.5 µM/h
binding result [7]: binds

B9: ΔSrtA^2M (SrtA^2M with the H1 helix, residues 37-54, removed) (protein)
chain: DSPAVRDSVLEAARQYNTSVVGFPILGPGLNRASKNSGPYLDYLQQLNPQRAERPVIASISIPTIDAHLPIYHGTDTATLEHGLGHLYGSALPVGGTGTHPVITGHSGLANATLFDNLEDVKEHDPIYITVQGETLKYEVDAINVVLPEDTKLLAPDPNKDQITLITCTPYAVNSHRLLVRAHRVDLDPNDPNLTQTGTKIWQ
in vitro SpaA pilus polymerization (SDS-PAGE) [8]: the removal of the H1 helix in the SrtA^2M enzyme also abrogates pilus polymerization
Vmax of hydrolysis kinetics (HPLC-based assay, SpaApep cleavage) [3]: 6.3 µM/h

B10: Staphylococcus aureus sortase A, wild type (protein)
chain: QAKPQIPKDKSKVAGYIEIPDADIKEPVYPGPATPEQLNRGVSFAEENESLDDQNISIAGHTFIDRPNYQFTNLKAAKKGSMVYFKVGNETRKYKMTSIRDVKPTDVGVLDEQKGKDKQLTLITCDDYNEKTGVWEKRKIFVATEVK
hydrolysis of LPATG peptide (HPLC) [6]: SaSrtA robustly hydrolyzes the LPATG (SEQ ID NO. 5) peptide, as expected

B11: Staphylococcus aureus sortase A improved variant 4M (P94S/D160N/D165A/K196T) (protein)
chain: B10 chain with P35S, D101N, D106A, K137T
hydrolysis of LPATG peptide (HPLC) [6]: almost entirely hydrolyzes the full length peptide after 24 hrs
